Measurements taken from article PMC7026020.

Tests used:
[1] = target: membrane FcγRIIIA (human) (UniProt P08637); assay: flow cytometry on cells
[2] = target: membrane FcγRIIIA (human) (UniProt P08637); assay: flow cytometry on cells; competition: CD16-transduced NK92 cells (2 x 10^4) incubated with FITC-conjugated anti-CD16 3G8 (1:100) and increasing concentrations of TmAbs or sc-TmAbs, 30 min at 4°C; percent inhibition of 3G8 binding

Chain of UniProt P08637 (P08637 17-208): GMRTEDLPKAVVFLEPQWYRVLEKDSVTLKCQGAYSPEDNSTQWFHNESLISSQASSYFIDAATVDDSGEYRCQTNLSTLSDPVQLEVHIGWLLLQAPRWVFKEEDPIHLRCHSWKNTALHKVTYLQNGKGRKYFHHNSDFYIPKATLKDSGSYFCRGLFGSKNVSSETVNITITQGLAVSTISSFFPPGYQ

| Substance | maximal percent inhibition of 3G8 binding (at 3 mg/mL) [1] [%] | maximal percent inhibition of 3G8 binding (at 3 mg/mL) [2] [%] |
| --- | --- | --- |
| cetuximab (antibody) | 80 |  |
| infliximab (antibody) |  | 80 |
| ipilimumab (antibody) | 80 |  |
| rituximab (antibody) | 80 |  |
| trastuzumab (antibody) | 80 |  |
